What all share (experiment): EMSA
The target in one data set is T1, DMP1 ΔMHR (human, UniProt Q9Y222 1-223).
T1 sequence: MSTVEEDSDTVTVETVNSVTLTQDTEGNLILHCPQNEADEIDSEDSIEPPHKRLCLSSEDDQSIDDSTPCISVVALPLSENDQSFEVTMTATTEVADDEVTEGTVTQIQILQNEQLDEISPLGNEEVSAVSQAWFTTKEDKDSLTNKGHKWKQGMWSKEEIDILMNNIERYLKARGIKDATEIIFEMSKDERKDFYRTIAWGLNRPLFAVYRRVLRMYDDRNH

The next data set concerns the target T2, DMP1β (DMTF1 isoform β) (human, UniProt Q9Y222-2 1-272).
T2 sequence: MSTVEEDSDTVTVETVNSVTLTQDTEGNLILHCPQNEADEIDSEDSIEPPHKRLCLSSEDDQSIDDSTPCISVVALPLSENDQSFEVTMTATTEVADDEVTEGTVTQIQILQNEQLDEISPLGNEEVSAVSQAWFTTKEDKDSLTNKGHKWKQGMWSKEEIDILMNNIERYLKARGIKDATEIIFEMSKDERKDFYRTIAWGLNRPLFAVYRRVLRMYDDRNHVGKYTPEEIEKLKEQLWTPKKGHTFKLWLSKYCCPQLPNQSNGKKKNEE

A further data set concerns the target T3, DMP1γ (DMTF1 isoform γ) (human, UniProt Q9Y222-3 1-285).
T3 sequence: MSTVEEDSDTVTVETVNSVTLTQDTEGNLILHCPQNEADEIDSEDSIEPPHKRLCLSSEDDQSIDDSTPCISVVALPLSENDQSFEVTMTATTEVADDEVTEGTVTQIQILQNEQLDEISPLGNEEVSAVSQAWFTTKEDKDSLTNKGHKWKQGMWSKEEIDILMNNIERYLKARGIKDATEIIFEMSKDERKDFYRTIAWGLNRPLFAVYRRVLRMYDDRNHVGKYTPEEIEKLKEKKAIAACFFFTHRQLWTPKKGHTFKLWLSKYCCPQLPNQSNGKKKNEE

Another data set addresses T4, DMP1α (DMTF1 isoform α) (human, UniProt Q9Y222 1-760).
T4 sequence: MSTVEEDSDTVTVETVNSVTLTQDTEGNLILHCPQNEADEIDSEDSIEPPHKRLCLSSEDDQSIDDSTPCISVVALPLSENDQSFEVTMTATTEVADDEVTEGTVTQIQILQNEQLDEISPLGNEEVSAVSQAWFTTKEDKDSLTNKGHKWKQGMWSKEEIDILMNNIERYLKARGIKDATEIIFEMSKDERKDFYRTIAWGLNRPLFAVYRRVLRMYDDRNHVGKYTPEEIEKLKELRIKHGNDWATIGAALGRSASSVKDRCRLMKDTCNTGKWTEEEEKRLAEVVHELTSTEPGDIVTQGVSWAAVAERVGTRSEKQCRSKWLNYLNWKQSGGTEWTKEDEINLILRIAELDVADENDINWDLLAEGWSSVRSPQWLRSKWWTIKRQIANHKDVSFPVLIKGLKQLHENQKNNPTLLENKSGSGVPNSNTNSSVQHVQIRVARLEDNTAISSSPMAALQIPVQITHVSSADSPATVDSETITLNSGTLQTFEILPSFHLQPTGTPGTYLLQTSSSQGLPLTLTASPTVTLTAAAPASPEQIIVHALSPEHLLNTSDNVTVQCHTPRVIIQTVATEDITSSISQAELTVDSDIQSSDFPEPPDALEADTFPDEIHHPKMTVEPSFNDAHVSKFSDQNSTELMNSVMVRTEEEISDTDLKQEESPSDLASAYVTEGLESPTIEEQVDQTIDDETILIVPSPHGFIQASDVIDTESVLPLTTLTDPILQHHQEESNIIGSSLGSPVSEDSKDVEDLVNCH

B1: human ARF promoter DMP1 site probe (dsDNA)
DNA 1: GTCAGGTGACGGATGTAGCTAGG
DNA 2: CCTAGCTACATCCGTCACCTGAC
As for B1, the binding result with DMP1 ΔMHR is “no binding”; with DMP1β (DMTF1 isoform β) it was “no binding”; with DMP1γ (DMTF1 isoform γ) it was “no binding”; in the data set with DMP1α (DMTF1 isoform α), “binds”.

The record behind these values is PMC4687731.
